In the nanobody polyreactivity screen of Harvey et al. (2022):

Assay: yeast display, Sf9 membrane polyspecificity reagent, FACS + sequencing; frameworks hold sequencing errors
Method in brief: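 Nanobodies from a synthetic yeast display library (Saccharomyces cerevisiae BJ5465), induced 36–48 hours with galactose, were stained 1 hour at 4 °C with 10% biotinylated, detergent-solubilized Sf9 membrane reagent, enriched on streptavidin microbeads, then FACS-sorted. Anti-HA (expression) and streptavidin (reagent binding) fluorescence set low and high (top ~1%) gates. Polyreactivity labels come from the gate of origin. Genes were colony-PCR amplified, MiSeq 2 × 250 sequenced and filtered by CDR length.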

| Sequence | polyreactivity (PSR sort gate) |
| --- | --- |
| QVHLVESGGGLVQAGGSLRLSCAASGSIFAVYAMGWYRQAPGKERELVAAITRSGRTSYADSVKGRFTISRDNAKNTVYLQMNSLKPEDTAVFYCAVRTYYPTFGGFYYWGQGTQVTVSS | high polyreactivity |
| QVQLVESVGGLVQAGGSLRLSCADSGLTFVDYAMGWYRQAPGKERELVAAITSSGGSITYYADSVKGRFTISRDNAKNTVYLQMKSLKPEDTAVYYCNADYGIYTDSFRGPDYESRGQGTQVTVSS | low polyreactivity |
| QVQLVESGGGLVQAGGGLRLSCAASGTFKRNAMGWYRQAPGKERELVATITRTGSTTYADSVKGRFTISRDNAKNTVYLQMNSLKPEDTAVYYCNRVTKEYGLRQYYYWGQGTQVTVSS | low polyreactivity |
| QVQLVESGGGLVQAGGSLRLSCAASGITIRYYTMGWYRQAPGKERELVASISWSGTSTHYADSVKGRFTISRDNAKNTVYLQMNSLKPEDTAVYYCAATITSLAGGYRNGYTSYYWGQGTQVTVSS | high polyreactivity |
| QVQLVESGGGLVQAGGSLRISCAASGNIFPYYAMGWYRQAPGKERELVATITRGGRTNYADSVKGRFTISRDNAKNTVYLQMNSLKPEDTAVYYCASYSYTLTYRFDYWGQGTQVTVSS | low polyreactivity |
| QVQLVESGGGLVQAGGSLRLSCAASVITLFGYTMGWYRQAPGKERELVAAIRRRGVSTYYADSVKGRFTISRDNAKNTVYLQMNSLKPEDTAVYYCAKSLKPYTDYDYWGQGTQVTVSS | high polyreactivity |
| QDQLVESAAGLVQAGGSLRLSCAASGSTFATYAMGWYRKAPGKERELVAAITASGGRTFYADSVKGRFTLSRDNAKNTVYLQMNSLKPEDPAVYYCAKRGDYVPYTFDYWGQGTQVTVSS | high polyreactivity |
| QVQLVESGGGLVQAGGSLRLSCAASGRTFELYAMGWYRQAPGKERELVAAIRQSDVSTYYADSVKGRFTISRDNAKNTVYLQMNSLKPEDTAVYYCAARNRYRRRYYYWGQGTQVTVSS | high polyreactivity |
| KVQLVESGGGLVQAGGSLRLSCAASGFTLGYYAMGWYRQEPGKEREMVAAITSGGGTNYADSVKGRFTISRDNAKNTVYLQMNSLKPEDSAVYYCAARARWIYGMYSWGQGTQVTLSS | low polyreactivity |
| QVQLEESGGGLVQAGGSLRLSCAATASIFDYYAMGWYRQAPGKERELVAAISGTGGSTYYADSVMGRFTISRDNAKNTVYLQMNSLKPEDTAVYYCNAARVIRTALRNDGTFDYWGQGTQVTVSS | high polyreactivity |
| QVQLVESGGGLVQAGGSLRLSCAASGSIFNDYAMGWYRQAPGKERELVAAITSSDGRTFYADSVKGRFTISRDNAKNTVYLQMNSLKPEDTAVYYCAAEWTSRYSTYEYWGQGTQVTVSS | low polyreactivity |
| QVQLVESGGGLVPAGGSLRLSCAASGSTFVGNAMGWYRQAPGKERELVAAISSGGSTNYADSVKGRFTISRDNAKNTVYLQMNSLKPEDTAVYYCNAVYFYWLYGFSYFATGITYDYWGQGTQVTVSS | high polyreactivity |
| QVQLLESGGGLVQAGGSLRLSCAASGFTFAWYAMGWYRQAPGKERELVAAISSRGSRTRYADSVKGRFTISRDNAKNTVYLQLNSLKPEDTAFYYCAKGSGARVVQVDRSGDYWGQGTQVTVSS | high polyreactivity |
| QVQLVESGGGLVQAGGSLRLSCAASGSTFKSYAMGWYRQAPGKERELVAAITHRGSTYYADSVKGRFTTSRDNAKNTVYLQMNSLKPEDTAVYYCNVRRIGNGRRVDYWGQGTQVTVSS | high polyreactivity |
| QVQLVESGGGLVQSGGSLRLSCAASGIIFSDYAMGWYRQAPGKERELVATITRSVRTSYADSVKGRFTISRDNAKNTVYLQMNSLKPEDTAVYYCNADVVGAVIAYDYWGQGTQVTVSS | low polyreactivity |
| QVQLVESGGGLVQAGGSLRISCAASGRIFVSNAAMGWYIQAPGKESELVAAITSRGGRTTYADSVKGRFTSSRDNAKNTVYLQMNSLKPEDTAVYYCAARVRGYDWVRGSPFHHNYWGQGTQVTVSS | high polyreactivity |
| QVQLVESGGGLVQAGGSLRLSCAASGSTFDYNAKGSYRQAPGKERELVAVISSSGGSTYYADSVKGRFTISRDIAMNTVYLQMNSLKPVDTAVYYCAALYRNYGSSYAYYYWGLGTQVTVSS | low polyreactivity |
| QVQLVESGVGLVQAGVSLRLSCAASVSISTPYTMGWSRPAPGKERELVAAISWIGDTTSYADSVKGRFTISRDNAKNTVYLQMNRLKPEDTAVYYCNAEHRGYDYWGQGTQVTVSS | low polyreactivity |
| QDQHVESGGGLVQAGGSLRLSCAASGSNFVINAMGWYRQAPGKEREWVAAITSSGGSTYYADSVKGRFTISRDNAKNTVYLQMNSLKPEDTAVYYCAAYVRTAFGRMNYWGQGTLVTVSS | high polyreactivity |
| QVQLVESGGGLVQAGGSLRLSCAASGRTFKGYAMGWYSQAPGKDRELVAAISYRGGSTYYADSVKGRFTISRDNAKNTGYLQMNILKPEDTAFYYCAARWNRGRYDYWGQGTQVTVSS | high polyreactivity |
| QVQLVESGGGLGQAGGSLRLSCAASGFTFSSNAMGWYRQAPGNERALVAAISGNGGITYYADSVKGRFTISRDNAKNTVYLQMNCLKPEDTAVDYCAAEAYRYAWYDYWGQGTQVTVSS | high polyreactivity |
| QVQLVESGGGLVQAGGSLRLSCAASGSIFLYYAMGWYIQATGKERELVATITSGGRTSYADSVKGRFTISRDNAKNTVYLKMNSLKPEDTAVYYCAGRYGWFTPYDYWGQGTQVTVSS | high polyreactivity |

| Sequence | polyreactivity (PSR sort gate) |
| --- | --- |
| QVQLVESGGGLVQAGGSLRFSCAASGPIFYNNAMGGYRQAPGKERELHAAISYSGGRTYYADSVKGRFTISRDNAKNTVYLQMNSLKPEDTAVYYCATRYARTAYIRSEYWGQGTQVTVSS | high polyreactivity |
| QVQLVESGGGLVQAGGSLRLSCAASGSNSSFYAMGWYRQAPGKERELVAGITSGGSTNYADSVKGRFTISRDNAKNTVYLQLNSLKPEDTAVYYCAAERTPSFRAYDYWGQGTLVTVSS | low polyreactivity |
| QVQLVESGGGLVQAGGSLRLSCAASGFIFGAYTMGWYRQAPGKESELVADISRRGGTTYYADSVKGRFTISRDNAKNTVYLQMNSLKPEDTAVYYCANVANFWYNTTLRGYYYWGQGTQVSVSS | high polyreactivity |
| QVQLVESGGGLVQAGGSLRLSCAASGFSFIDNALGWYPQAPGKERELVAAITWSGGSTYYADSVKGRFTISRDNAKNTVYLQMNSLKPEDTAVYYCAATLWFGVAGDSRYDPPEYDYWGQGTQVTVSS | low polyreactivity |
| QVQLVESGGGLVQAGGSLRLSCAASALTFHFNAMGWYRQAPGKERELVASITSSGGSTYYADSVKGRFTISRDNAKNTVSLQMNSLKPEDTAVYYCNAEGSSVLTGYWGYPPYWDTYDYSGQGTQVTVSS | low polyreactivity |
| QVQLVESGGGLVQSGGSLRLSCAASGRIFYYNAMGWYRQAPGKERELVAAITSSSGSSTYYADSVKGRFTISRDNAKNTVYLQMNSLKPEDTAVYYCNAASLDRFFGYRYNDDDYWGQGTQVTVSS | low polyreactivity |
| QVQLVESGGGLVQAGGSLRLSCAASGLTFWGYAMGWYRQAPGKEREFVASISSGGGSTYYADSVKGRFTMSRDNAKNTVYLQMNSLKPEDTAVYYCNAYRTKYRNQYTYATFDYWGQGTQVTVSS | low polyreactivity |
| QVQLVESGGGLVQAGGSLRLSCAASGFTFRWYAMGWYRQAPGKERELVAAISSGGGSTYYADSVKGRFTISRDNAKITVYLQMNSLKPEDTAVYYCNSRGTRIASGHYYWGQGTQVTVSS | high polyreactivity |
| QVQLVESGGGLVQAGGSLRLSCAASGRTFRFNAMGWYRQAPGKERELVAAISSGGNTYYADSVKGRFTISRDNAKNTVYLQMNSLKPEDTAVYYCNTVYLYGTHDYWGQGTQVTVSS | low polyreactivity |
| QVQLVESGGGLVQAGGSLRLSCAASANIFKPNAMGWYRQAPGKERELVAAISDSGGNTYYADSVKGRFTISRDNAKNTVYLQMNSLKPEDTAVYYCARRYYWYSGRYDYWGQGTQVTVSS | high polyreactivity |
| QVQLVESGGGLVQAGGSLRLSCAASGSTFYDYAMGWYRQAPGKERELVAAMSSSGARTYYADSVKGRFTISRDNAKNSVYLQMNSLKPEDTAVYYCGAKPHTRTTCPSGYWGQATQVTVSS | high polyreactivity |
| QVQLVESGGGLVQAGGSLRLSCAASGFIFKYNAMGWYRQAPGKERELVAAISYRGTRTYYADSVKGRFTISRDNAKNTVYLQMNSLKPEDTAVYYCNAGLTYNHHPYDYWGQGTQVTVSS | high polyreactivity |
| QVQLVESGGGLVQAGGSLRISCAASGGTFHRYAMGWYRQAPGKERELVAAISGSGASTYYADSVKGRFTISRDNAKNTVYLQMNSLKPEDTAVYYCNAYYYPYWYRYYYWGQGTQVTVSS | high polyreactivity |
| QVQLVESGGGLVQAGGSLRLSCAASGRIFAYYAMGWYRQAPGKERELVAAISGSDGSTYYADSVKGRFTISLDNAKNTVYLQMNSLKPEDTAVYYCAAQDTPGYDYWGQGTQVTVSS | low polyreactivity |
| QVQLVESGGGLVQAGGSLRLSCAASGIIFAYYAMGWYRQAPGKERELVATITSGSNTNYADSVKGRFTISRDNAQNTVYLQMNSLKPEDTAVYYWGQGTQVTVSS | low polyreactivity |
| QVQLVESGGGLVQAGGSLRLSCAASGRTFYSYAMGWYSQAPGKERELVATISSNADGTYYADSVKGRFTISRDNAKNTVYLQMNSLKPEDTAVYYCAATYRRSHRYNYWGQGTQVTVSS | high polyreactivity |
| QVQLVESGGGLVQAGGSLRLSCAASGSTIPSNAMGWYRQAPGKERELVASITYTDGTTRYADSVKGRFTISRDNAKNTVYLQMNSLKPEDTAVYYCNAVYYREGMDYWGQGTQVTVSS | low polyreactivity |
| QVQLVESGGGLVQAGGSLRLSCAASGSNISNYVMGWYRQAPWKERELVAAITRRGGRTYYADSVKGRFTISRDYAKNTFYLQMNSLKPEDTAVYYCAKRHVGSRYLFEYWGQGTQVTVSS | low polyreactivity |
| QVQLVESGGGLDQAGGSLRLSCAASGSTFQVNVMAWYRQAPGKEREFVAGISYSGGSTYYADSVKGRFTISRDNAKNTVYLQMNSLKPEDTAVYYCAAEEDYNIAGSWTYTYDYWGQGTQVTVSS | low polyreactivity |
| QVLLQESGGGLVQAGGSLRLGCAASGTISPAYYMGRYHHAPGKEREFVAAITYGTNTYYADSVKGRFTISRDNAKNTVNLQMNSLKPADTAVYYCSATAGYNGAHDYWGQGTQVTVSS | low polyreactivity |
| QVQLVESGGGLVQAGGSLRLSCAASGRTFAWYAMGWYRQAPGKERELVAAITTRGSGTYYADSVKGSFTISRDNAKNTVYLQMHSLKPEDTAVYYCAKDPITATTLDERVYYWGQGTQVTVSS | low polyreactivity |
